Legend:
[1] = system: hemagglutinin H3 on virus particles (Influenza A virus A/England/42/1972 (H3N2)); test: ELAA
[2] = system: hemagglutinin H5 on virus particles (Influenza A virus A/chicken/Kurgan/3654at/2005 (H5N1)); test: ELAA
[3] = system: hemagglutinin H7 on virus particles (Influenza A virus A/mallard/Sweden/91/2002 (H7N9)); test: ELAA
[4] = system: hemagglutinin H9 on virus particles (Influenza A virus A/duck/Primorie/3628/2002 (H9N2)); test: ELAA
[5] = system: hemagglutinin HA1 subunit H1 (recombinant, Abcam ab69741) (Influenza A virus H1 (strain not given)); test: SPR
[6] = system: hemagglutinin HA1 subunit H3 (recombinant, Abcam ab69749) (Influenza A virus H3 (strain not given)); test: SPR
[7] = system: hemagglutinin HA1 subunit H9 (recombinant, Abcam ab67740) (Influenza A virus H9 (strain not given)); test: SPR

Sequence	Kd [1]	Kd [2]	Kd [3]	Kd [4]	Kd [5]	Kd [6]	Kd [7]
TTGGGGTTATTAAGGGAGGGCGGGGGTT [5'-biotin G7-TTATTAA]	8 nM	5 nM	13 nM	8 nM	–	–	–
TTGGGGTTAGGGAGGGCGGGGGTT [5'-biotin G7-TTA]	7 nM	13 nM	6 nM	10 nM	–	–	–
TTGGGGTTATTAAGGGAGGGCGGGGGTT [G7-TTATTAA]	–	–	–	–	90 nM	50 nM	28 nM
TTGGGGTAAGAAGGGAGGGCGGGGGTT [5'-biotin G7-TAAGAA]	17 nM	9 nM	13 nM	7 nM	–	–	–
TTGGGGTTATTTTGGGAGGGCGGGGGTT [5'-biotin RHA0385]	2 nM	4 nM	8 nM	5 nM	–	–	–
TTGGGGTAAGAAGGGAGGGCGGGGGTT [G7-TAAGAA]	–	–	–	–	60 nM	60 nM	60 nM
TTGGGGTTAGGGAGGGCGGGGGTT [G7-TTA]	–	–	–	–	30 nM	16 nM	28 nM
TTGGGGTTATTTTGGGAGGGCGGGGGTT [RHA0385]	–	–	–	–	7 nM	12 nM	14 nM
